Columns and labels:
[1] = target: T1, Bcl-xL (Homo sapiens, UniProt Q07817, DEL45-84); assay: Bcl-xL pore formation, carboxyfluorescein release from liposomes; assay type: biochemical; conditions: 5 μM Bcl-xL-His6, pH 4.0
T1 construct: His6 (C); made in house
Procedure: Bcl-xL forms membrane pores, and the formation of these pores may play a role in Bcl-xL's ability to regulate apoptosis. Thus, the effects of the BH3Is on pore formation by Bcl-xL were tested (Minn, et al., Nature 385:353-7, 1997; Schendel et al., Proc. Natl. Acad. Sci. USA 94:5113-8, 1997; Minn et al., EMBO J. 18:632-43,1999; and Matsuyama et al., J. Biol. Chem. 273:30995-1001, 1998). Liposomes containing 20 mM of 5,6-carboxyfluorescein were prepared as previously described (Antonsson, et al., Science 277:370-2,1997). For Bcl-xL pore formation 5 μM Bcl-xL-His6 was preincubated with BH3I-2 or Bak BH3 peptide in 50 μl of 5 mM sodium citrate, 150 mM NaCl, pH 4.0 buffer for 10 min at 25° C., followed by addition of 5 μl of undiluted liposomes. Prior to determination of the fluorescence pH was adjusted by adding 10 μl of 1.5 M Tris-HCl, pH 7.5.

[2] = system: BH3/Bcl-xL binding; assay: SELDI binding assay, unlabeled Bak BH3 peptide on immobilized Bcl-xL-His6
Description: To test the possibility that BH3Is target the OREGON GREEN moiety of the fluorescently labeled BH3 peptide, a novel BH3/Bcl-xL binding assay using unlabeled BH3 peptide was designed. In this assay Bcl-xL was covalently attached to a surface-enhanced laser desorption/ionization (SELDI) chip, and binding of the unlabelled BH3 peptide to the immobilized protein was monitored by mass spectrometry. Specifically, purified recombinant GST-Bcl-2 and BCL-xL-His6 were coupled through their primary amines to SELDI chip surfaces derivatized with carbonyldiimidazole (Ciphergen). Bak BH3 peptide was then added (in a total volume of 1 μl) for 12 hours at 4° C. in a humidified chamber, to allow binding to each spot of the SELDI chip. The chip was then washed with alternating high and low pH-0.1M sodium acetate with 0.5M NaCl, followed by 0.01M HEPES; pH 7.3. The samples were embedded in α-cyanno-4-hydroxycinnamaic acid matrix and analyzed for mass by MALDI TOF. An average of 100 laser shots at a constant setting were collected over 20 spots in each sample.

T1 sequence (Q07817 with tags, fused parts or gaps DEL45-84 limits assumed): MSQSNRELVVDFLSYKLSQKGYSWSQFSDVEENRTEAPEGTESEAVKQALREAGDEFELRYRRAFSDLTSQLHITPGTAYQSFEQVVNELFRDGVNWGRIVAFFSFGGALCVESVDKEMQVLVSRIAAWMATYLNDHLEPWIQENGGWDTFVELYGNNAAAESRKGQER

In the case of “KGGGQVGRQLAIIGDDINR (SEQ ID NO: 2) (BAK) [BH3 peptide, nineteen amino acid Bak peptide corresponding to the BH3 domain of Bak, reference compound]”, the “Bcl-xL-mediated release of carboxyfluorescein from liposomes” value [1] is reported as “Neither BH3Is nor BH3 peptide affected” and the “binding of BH3 peptide to Bcl-xL-modified surface” value [2] is reported as “bound to the Bcl-xL-modified surface in a dose-dependent fashion”.

From patent US7390836B2, “Small molecules used to increase cell death” (priority 1999, dated 2008)
